Test results taken from US20070190056A1.

Target: recombinant myostatin
Assay: cell-based or functional assay

myostatin antagonist 350 (amino acids 267-350 of bovine myostatin) (from UniProt O18836 267-350) (peptide)
macrophage migration towards ZAMS medium (chemotaxis assay, FIG. 9): 20 fold
